Where two headings read alike, the source gives them in different places. Values belong to the binder of their own block, whether it stands above or below them.
Columns and labels:
Experiment in all cases: cell-based or functional assay
[1] = biological target: T1, recombinant human PCSK9, V5-, His-tagged (human, UniProt Q8NBP7 31-692, limits assumed)
[2] = biological target: T1, recombinant human PCSK9, V5-, His-tagged; remark: listed apart in the source
[3] = biological target: T1, recombinant human PCSK9, V5-, His-tagged; remark: listed apart in the source
[4] = biological target: T1, recombinant human PCSK9, V5-, His-tagged; remark: listed apart in the source
[5] = biological target: T1, recombinant human PCSK9, V5-, His-tagged; remark: listed apart in the source

T1 sequence (Q8NBP7 31-692 limits assumed): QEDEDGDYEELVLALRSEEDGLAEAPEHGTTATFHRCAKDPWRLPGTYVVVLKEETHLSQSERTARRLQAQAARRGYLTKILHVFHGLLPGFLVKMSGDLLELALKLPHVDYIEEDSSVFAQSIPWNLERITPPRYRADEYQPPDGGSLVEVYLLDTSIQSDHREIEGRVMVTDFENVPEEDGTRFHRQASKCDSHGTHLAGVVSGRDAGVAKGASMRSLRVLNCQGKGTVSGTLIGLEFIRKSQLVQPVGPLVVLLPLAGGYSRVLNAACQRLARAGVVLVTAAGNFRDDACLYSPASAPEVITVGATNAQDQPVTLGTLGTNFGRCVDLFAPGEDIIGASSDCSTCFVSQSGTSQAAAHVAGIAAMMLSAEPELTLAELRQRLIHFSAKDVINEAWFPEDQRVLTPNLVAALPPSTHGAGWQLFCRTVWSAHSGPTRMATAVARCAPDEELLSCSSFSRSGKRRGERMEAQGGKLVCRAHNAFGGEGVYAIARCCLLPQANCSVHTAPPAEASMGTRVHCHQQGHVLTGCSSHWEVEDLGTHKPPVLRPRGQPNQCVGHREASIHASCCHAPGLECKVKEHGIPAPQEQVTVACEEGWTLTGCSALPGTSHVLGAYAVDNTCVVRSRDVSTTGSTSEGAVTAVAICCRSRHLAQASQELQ

IC50: Fab titrated against PCSK9 fixed at 25 µg/ml, recovery of cellular diI-LDL uptake (Exopolar assay) [3]: 0.107 µM
B3: 3CX2A06 Fab (Fab, V domains shown)
VH: QVQLVQSGAEVKKPGESLKISCKGSGYSFSNFWIAWVRQMPGKGLEWMGIIDPSDSWTRYSPSFQGQVTISADKSISTAYLQWSSLKASDTAMYYCARGDGQDFDNWGQGTLVTVSS
VL: DIQMTQSPSSLSASVGDRVTITCRASQNINSYLNWYQQKPGKAPKLLIYAASSLQSGVPSRFSGSGSGTDFTLTISSLQPEDFAVYYCLQNYDLPNTFGQGTKVEIKR

IC50: Fab titrated against PCSK9 fixed at 25 µg/ml, recovery of cellular diI-LDL uptake (Exopolar assay) [4]: 0.269 µM
B4: 3CX3D02 Fab (Fab, V domains shown)
VH: QVQLVQSGAEVKKPGESLKISCKGSGYSFTNSWIGWVRQMPGKGLEWMGIIYPSDSYTIYSPSFQGQVTISADKSISTAYLQWSSLKASDTAMYYCARGGGYYYALMDVWAQGTLVTVSS
VL: DIQMTQSPSSLSASVGDRVTITCRASQTISTWLNWYQQKPGKAPKLLIYAASSLQSGVPSRFSGSGSGTDFTLTISSLQPEDFATYYCLQDSSLPLTFGQGTKVEIKR

More lines, now with the values behind:

B1: 3CX4B08 Fab (Fab, V domains shown)
VH: QVQLVESGGGLVQPGGSLRLSCAASGFTFSNYTMNWVRQAPGKGLEWVSFISSSSSETYYADSVKGRFTISRDNSKNTLYLQMNSLRAEDTAVYYCARGYGDMVDLWGQGTLVTVSS
VL: DIELTQPPSVSVAPGQTARISCSGDSIPTYYVAWYQQKPGQAPVLVIYSDTDRPSGIPERFSGSNSGNTATLTISGTQAEDEADYYCQSFDNHGYHVFGGGTKLTVLG
IC50: Fab titrated against PCSK9 fixed at 25 µg/ml, recovery of cellular diI-LDL uptake (Exopolar assay) [1]: 0.127 µM

B2: 3BX5C01 Fab (Fab, V domains shown)
VH: QVQLVQSGAEVKKPGESLKISCKGSGYSFTSYGISWVRQMPGKGLEWMGMIDPSDSFTTYSPSFQGQVTISADKSISTAYLQWSSLKASDTAMYYCARGYYFTYALQPMDHWGQGTLVTVSS
VL: DIELTQPPSVSVAPGQTARISCSGDNLRDYIVHWYQQKPGQAPVLVIYDDSNRPSGIPERFSGSNSGNTATLTISGTQAEDEADYYCGFDNGGDIDVFGGGTKLTVLG
IC50: Fab titrated against PCSK9 fixed at 25 µg/ml, recovery of cellular diI-LDL uptake (Exopolar assay) [2]: 1.25 µM

B5: 1CX1G08 Fab (Fab, V domains shown)
VH: QVQLVESGGGLVQPGGSLRLSCAASGFTFSDYWVSWVRQAPGKGLEWVSFISYDGSSTYYADSVKGRFTISRDNSKNTLYLQMNSLRAEDTAVYYCARTYFEGVDVWGQGTLVTVSS
VL: DIELTQPPSVSVAPGQTARISCSGDNIGTYYVHWYQQKPGQAPVLVIYDDSNRPSGIPERFSGSNSGNTATLTISGTQAEDEADYYCGTWDNTSFNLVFGGGTKLTVLG
IC50: Fab titrated against PCSK9 fixed at 25 µg/ml, recovery of cellular diI-LDL uptake (Exopolar assay) [5]: 0.267 µM
